The target in the test is EGFR-NLuc (human EGF receptor fused to the N-terminal fragment of firefly luciferase) (human, UniProt P00533 25-1210). The test is described as follows: split reporter.

B1: Shc-CLuc (human p52Shc fused to the C-terminal fragment of firefly luciferase) (natural protein, UniProt P29353-2 1-473, looked up)
chain: MNKLSGGGGRRTRVEGGQLGGEEWTRHGSFVNKPTRGWLHPNDKVMGPGVSYLVRYMGCVEVLQSMRALDFNTRTQVTREAISLVCEAVPGAKGATRRRKPCSRPLSSILGRSNLKFAGMPITLTVSTSSLNLMAADCKQIIANHHMQSISFASGGDPDTAEYVAYVAKDPVNQRACHILECPEGLAQDVISTIGQAFELRFKQYLRNPPKLVTPHDRMAGFDGSAWDEEEEEPPDHQYYNDFPGKEPPLGGVVDMRLREGAAPGAARPTAPNAQTPSHLGATLPVGQPVGGDPEVRKQMPPPPPCPGRELFDDPSYVNVQNLDKARQAVGGAGPPNPAINGSAPRDLFDMKPFEDALRVPPPPQSVSMAEQLRGEPWFHGKLSRREAEALLQLNGDFLVRESTTTPGQYVLTGLQSGQPKHLLLVDPEGVVRTKDHRFESVSHLISYHMDNHLPIISAGSELCLQQPVERKL
B1: the “fold induction of reconstituted luciferase over control, 15 min after EGF” value is 2.5 fold over control.

For the origin of these results see publication PMC4591933 (Cancer research, 2008).
